From patent US20210179717A1 (ALBERT LUDWIGS UNIVERSIT T FREIBURG, published 2021)

What was measured:
peptide M7 (EQLKKSKTL) = target: T1, peptide M7 (EQLKKSKTL) (human); assay: solid phase binding assay, immobilized peptide M7
T1 construct: Immobilised peptide from the human Mac-1 αM I-domain
T1 peptide: EQLKKSKTL

peptide M8 (EEFRIHFT) = target: T2, peptide M8 (EEFRIHFT) (human); assay: solid phase binding (ELISA) with immobilized peptides
T2 peptide: EEFRIHFT

[1] = target: T3, scrambled peptide sM7 (KLSLEKQTK); assay: as above
T3 construct: Scrambled control of M7
T3 peptide: KLSLEKQTK

[2] = target: human Mac-1 (αMβ2, CD11b/CD18), native, non-activated (WT) (human, UniProt P11215 17-1152; P05107 23-769); assay: western blot of CHO cells over-expressing Mac-1

B1: anti-M7 (mouse monoclonal antibody, clone RC3, mouse IgG2bκ) (antibody, V domains shown)
VH: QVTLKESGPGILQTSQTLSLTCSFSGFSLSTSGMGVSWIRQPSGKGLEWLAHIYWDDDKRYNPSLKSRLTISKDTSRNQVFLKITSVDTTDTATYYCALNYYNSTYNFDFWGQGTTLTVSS
VL: DIQMTQSPSSLSASLGERVSLTCRASQEISGYLSWHQQKPDGTIKRLLYSTSTLDSGVPKRFSGSRSGSDYSLTISSLESEDFADYYCLQYAISPPTFGGGTKLEIK
notes: Coupled to Alexa Fluor 647 for flow cytometry; also called anti-M7-Alexa 647
B1: binds (peptide M7 (EQLKKSKTL)); no binding (peptide M8 (EEFRIHFT)); no binding [1]. B1: binds [2].
